This is an account of results in patent publication US20030171565A1.

In assay [1] the target is protein zero related (PZR), tyrosine-phosphorylated (human) (UniProt O95297). Briefly: immuno-depletion of extracts of pervanadate-treated cells with anti-SHP-2, Western blot of the supernatants.
Assay [2] has the same target. Briefly: immuno-depletion of extracts of pervanadate-treated cells with anti-PZR, Western blot of the supernatants.

Some results are limits rather than exact numbers.

protein zero related (PZR), tyrosine-phosphorylated (human), sequence (O95297 36-269 limits assumed): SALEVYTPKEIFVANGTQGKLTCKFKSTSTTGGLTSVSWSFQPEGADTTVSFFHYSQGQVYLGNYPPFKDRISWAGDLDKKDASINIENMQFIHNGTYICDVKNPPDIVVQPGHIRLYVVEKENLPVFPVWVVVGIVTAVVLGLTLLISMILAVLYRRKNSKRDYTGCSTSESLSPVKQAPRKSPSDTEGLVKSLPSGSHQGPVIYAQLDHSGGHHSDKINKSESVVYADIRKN

For “tyrosine phosphatase SHP-2, native full-length form (from UniProt Q06124 2-593) (enzyme)”, in assay [1], the loss of PZR from the extracts on immuno-depletion of SHP-2 was above 90%. The substance also displayed a removal of SHP-2 from the extracts on immuno-depletion of PZR in assay [2] of 50%.
